The supplement of paper PMC9732359
± gives the uncertainty stated by the source.

Assay: protein stability index of a GFP-peptide fusion (yeast GPS) (PSI 1-4); higher = more stable; sorted into four equal gates, so the index is relative within each strain
Summary of the method: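 Sequencing reads from sorted gates were used to score each peptide. The library consisted of tiled 17-residue yeast protein peptides fused downstream of GFP on a Cherry-expressing plasmid, pooled and carried in yeast. Mid-log cultures in leucine-free medium were split into four equal gates by GFP/Cherry ratio, and each gate's plasmids were PCR-amplified and Illumina-sequenced. The protein stability index adds up, over all gates, the read frequency multiplied by the gate number.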

Sequence	protein stability index (doa10∆)	protein stability index (pdr5∆)	protein stability index (san1∆)	protein stability index (ubr1∆)
SFTSATERHIQVGDGLE [PRE7]	2.79 ± 0.098	2.56 ± 0.075	3.35 ± 0.091	2.85 ± 0.049
MGQGLCNNINKGLKEND [BRR2]	3.13 ± 0.095	3.57 ± 0.15	3.2 ± 0.071	3.39 ± 0.1
KVEKGVNIEPFNIDDEI [LIN1]	3.52 ± 0.14	3 ± 0.21	3.45 ± 0.14	3.49 ± 0.076
HYGNEHIRRMVPLAMGI [RPN1]	1.29 ± 0.082	1.33 ± 0.064	1.24 ± 0.091	1.47 ± 0.065
NNGSKDHGDGILLIDSE [RPN9]	3.37 ± 0.16	3.19 ± 0.17	3.38 ± 0.063	3.41 ± 0.21
GFYQIKKIVDSKKLNLK [YMR129W/POM152]	3.11 ± 0.12	2.98 ± 0.092	2.41 ± 0.24	2.62 ± 0.11
VLSDQVGSEKVLQDLRL [YJL039C/NUP192]	3.12 ± 0.2	–	–	–
RNDKTLELMDSKKTGQF [POP1]	3.34 ± 0.069	3.44 ± 0.06	3.18 ± 0.064	3.37 ± 0.05
GRYLLTPPDDLHPYVPS [SRB8]	2.36 ± 0.057	2.41 ± 0.056	2.55 ± 0.061	2.66 ± 0.039
LERLTLVFCKHITSVPI [GRR1]	1.47 ± 0.057	1.42 ± 0.084	1.17 ± 0.14	1.44 ± 0.047
SLIENKKAKLVLIANDV [RPL8B]	2.32 ± 0.13	3.23 ± 0.17	2.99 ± 0.12	2.35 ± 0.14
YVNYEISTAKAWGALIT [YML103C/NUP188]	1.32 ± 0.052	1.43 ± 0.049	1.3 ± 0.073	1.4 ± 0.06
LGICTHLGCVPIGEAGD [RIP1]	2.21 ± 0.08	2.33 ± 0.076	1.79 ± 0.1	1.9 ± 0.083
FGLGYGDVGKNHITEFP [RPC31]	3.17 ± 0.11	3.22 ± 0.11	3.38 ± 0.12	3.56 ± 0.12
SHEERIEAIDEYNKPNS [ISW2]	2.01 ± 0.063	2.12 ± 0.054	1.84 ± 0.076	2.94 ± 0.039
NPLADAEEALEPSYIFE [PRE4]	3.09 ± 0.072	2.83 ± 0.077	3.08 ± 0.055	3.12 ± 0.06
MAGLSFDNYQRNNFLAE [PUP1]	3.61 ± 0.17	3.58 ± 0.1	3.29 ± 0.084	3.39 ± 0.092
VEVIKQLSLDASKTNLR [GAL11]	2.51 ± 0.063	2.62 ± 0.073	3.24 ± 0.077	2.71 ± 0.049
SKQDASPKPYAVKYGLN [RPL8A]	3.3 ± 0.12	3.2 ± 0.096	3.23 ± 0.095	3.14 ± 0.095
AQSHQRFNAKVSMVKRA [CDC53]	1.34 ± 0.045	2.09 ± 0.061	1.56 ± 0.16	1.64 ± 0.031
KEDKSEAIDGNGEIKGE [SNF2]	2.23 ± 0.049	2.81 ± 0.083	2.17 ± 0.073	2.48 ± 0.084
PYLPKHYLVLLVAKFLY [YJR042W/NUP85]	1.3 ± 0.084	1.28 ± 0.06	1.16 ± 0.15	1.21 ± 0.052
FTDENTIVLSLNVKCTR [RPC40]	3.44 ± 0.14	3.61 ± 0.091	2.96 ± 0.17	3.46 ± 0.091
VRSTIKFQLKKVLCLAV [RPL1A]	1.45 ± 0.051	1.35 ± 0.053	1.29 ± 0.089	1.18 ± 0.037
ASSNFPFLNETKPGVYY [RPC82]	3.09 ± 0.12	2.43 ± 0.09	2.73 ± 0.091	2.99 ± 0.072
ERDFYHSLREYINGKAT [RPO31]	2.58 ± 0.044	2.43 ± 0.044	2.9 ± 0.037	1.75 ± 0.023
